{"source": "patent US20240287161A1", "about": "(NATIONAL UNIVERSITY CORPORATION TOTTORI UNIVERSITY, published 2024)", "binders": {"B1": {"name": "NT-108 (recombinant human IgG1/kappa antibody) (antibody, V domains shown)", "VH": "EVQLQQSGPGLVKPSQTLSLTCSISGDSVSSNSAAWNWIRQSPSRGLEWLGRTYYRSKWYNDYAGTVKSRIAINPDTSKNQFSLHLNSVTPEDTAVYFCARVISVAGYAFDIWGQGTMVTVSS", "VL": "EIVLTQSPGTLSLSPGERATLSCRASQSVSSTFLAWYQQKPGQAPRLLIYGASYMATGIPDRFSGSGSGTDFTLTISRLEPEDFAVYYCQQYGSSLTFGGGTKLEIK"}}, "key": {"[1]": {"molecular_target": "T1, HCoV-OC43 trimeric S protein (amino acids 12-1299) with T4 foldon, histidine tag and strep-tag (HCoV-OC43, UniProt P36334 12-1291)", "T1 chain": "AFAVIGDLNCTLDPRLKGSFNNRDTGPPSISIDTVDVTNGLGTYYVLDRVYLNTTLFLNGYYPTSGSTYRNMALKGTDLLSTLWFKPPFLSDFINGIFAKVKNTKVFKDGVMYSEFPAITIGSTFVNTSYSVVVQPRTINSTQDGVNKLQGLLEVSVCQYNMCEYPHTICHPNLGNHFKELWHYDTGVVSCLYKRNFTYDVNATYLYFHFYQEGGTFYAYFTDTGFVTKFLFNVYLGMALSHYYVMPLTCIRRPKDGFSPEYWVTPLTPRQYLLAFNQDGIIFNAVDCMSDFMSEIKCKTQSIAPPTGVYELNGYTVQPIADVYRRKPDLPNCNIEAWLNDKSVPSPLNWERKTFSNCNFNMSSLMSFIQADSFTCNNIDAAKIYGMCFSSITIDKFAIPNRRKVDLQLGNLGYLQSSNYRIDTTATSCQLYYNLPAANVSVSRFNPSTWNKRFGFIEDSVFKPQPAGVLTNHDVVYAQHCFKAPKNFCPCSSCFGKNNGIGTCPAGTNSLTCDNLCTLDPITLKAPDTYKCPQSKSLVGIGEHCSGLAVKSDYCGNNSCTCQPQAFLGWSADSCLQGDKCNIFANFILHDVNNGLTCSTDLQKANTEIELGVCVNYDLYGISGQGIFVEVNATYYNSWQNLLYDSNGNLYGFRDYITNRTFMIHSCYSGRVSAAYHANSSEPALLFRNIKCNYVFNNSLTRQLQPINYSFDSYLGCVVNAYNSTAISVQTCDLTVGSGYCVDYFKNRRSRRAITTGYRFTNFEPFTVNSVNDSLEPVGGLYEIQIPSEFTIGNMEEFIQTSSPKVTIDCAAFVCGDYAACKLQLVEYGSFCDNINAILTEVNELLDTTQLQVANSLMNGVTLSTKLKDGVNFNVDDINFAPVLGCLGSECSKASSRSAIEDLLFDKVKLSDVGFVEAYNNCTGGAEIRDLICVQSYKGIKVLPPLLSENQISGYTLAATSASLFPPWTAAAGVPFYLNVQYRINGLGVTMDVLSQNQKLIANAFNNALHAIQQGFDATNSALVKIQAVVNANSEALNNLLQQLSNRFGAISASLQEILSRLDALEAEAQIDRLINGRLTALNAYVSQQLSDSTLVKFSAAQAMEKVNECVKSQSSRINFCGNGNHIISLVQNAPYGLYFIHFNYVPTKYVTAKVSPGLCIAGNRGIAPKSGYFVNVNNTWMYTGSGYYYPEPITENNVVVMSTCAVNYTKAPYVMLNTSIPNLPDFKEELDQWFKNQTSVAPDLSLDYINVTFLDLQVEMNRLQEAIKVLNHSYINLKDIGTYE", "assay": "ELISA on coated S-trimeric antigen, anti-human IgG-HRP [Human IgG1, NT-108]"}, "[2]": {"molecular_target": "T2, HCoV-HKU1 trimeric S protein (amino acids 13-1293) with T4 foldon, histidine tag and strep-tag (HCoV-HKU1, UniProt Q5MQD0 13-1297)", "T2 sequence": "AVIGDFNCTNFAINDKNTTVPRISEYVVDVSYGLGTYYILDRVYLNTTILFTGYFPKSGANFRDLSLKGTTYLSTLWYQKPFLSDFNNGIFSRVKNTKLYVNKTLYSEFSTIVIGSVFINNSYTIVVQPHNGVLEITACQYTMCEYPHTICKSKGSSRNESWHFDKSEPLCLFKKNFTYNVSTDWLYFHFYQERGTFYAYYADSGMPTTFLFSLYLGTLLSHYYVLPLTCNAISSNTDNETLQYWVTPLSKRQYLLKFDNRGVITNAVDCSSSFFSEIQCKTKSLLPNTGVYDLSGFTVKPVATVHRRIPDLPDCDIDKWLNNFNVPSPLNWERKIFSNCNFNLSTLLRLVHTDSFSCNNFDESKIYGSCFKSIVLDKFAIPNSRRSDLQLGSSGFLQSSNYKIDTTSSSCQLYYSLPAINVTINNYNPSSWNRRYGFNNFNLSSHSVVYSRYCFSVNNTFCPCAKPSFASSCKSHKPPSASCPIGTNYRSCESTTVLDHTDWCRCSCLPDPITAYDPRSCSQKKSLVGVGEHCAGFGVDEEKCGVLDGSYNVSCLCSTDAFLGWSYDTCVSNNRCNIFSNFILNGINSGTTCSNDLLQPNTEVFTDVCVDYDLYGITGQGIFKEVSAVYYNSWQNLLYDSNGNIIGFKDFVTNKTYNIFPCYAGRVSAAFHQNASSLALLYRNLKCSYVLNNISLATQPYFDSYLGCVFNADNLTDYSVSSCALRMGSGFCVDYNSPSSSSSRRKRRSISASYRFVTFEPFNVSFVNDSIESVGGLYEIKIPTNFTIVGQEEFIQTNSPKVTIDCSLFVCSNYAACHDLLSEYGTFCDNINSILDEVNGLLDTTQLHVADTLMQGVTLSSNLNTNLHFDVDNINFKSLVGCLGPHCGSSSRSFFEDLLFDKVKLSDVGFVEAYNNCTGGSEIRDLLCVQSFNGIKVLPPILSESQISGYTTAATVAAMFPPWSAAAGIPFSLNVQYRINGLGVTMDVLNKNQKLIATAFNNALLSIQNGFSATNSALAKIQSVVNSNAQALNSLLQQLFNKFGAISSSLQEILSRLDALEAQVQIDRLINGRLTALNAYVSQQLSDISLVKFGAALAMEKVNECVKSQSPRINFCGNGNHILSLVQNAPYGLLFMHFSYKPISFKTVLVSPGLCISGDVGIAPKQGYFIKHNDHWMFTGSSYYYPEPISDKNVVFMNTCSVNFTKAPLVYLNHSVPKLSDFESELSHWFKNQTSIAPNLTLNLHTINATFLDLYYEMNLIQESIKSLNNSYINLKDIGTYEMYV", "assay": "ELISA on coated S-trimeric antigen, anti-human IgG-HRP [Human IgG1, NT-108]"}}}
{"binder": "B1", "values": [{"measurement": "binding result", "setting": "[1]", "result": "no binding (tested: 1000 ng/ml)"}, {"measurement": "binding result", "setting": "[2]", "result": "no binding (tested: 1000 ng/ml)"}]}
